# Assay results taken from the nanobody polyreactivity screen of Harvey et al. (2022).
# Experiment: yeast display, Sf9 membrane polyspecificity reagent, FACS + sequencing; frameworks hold sequencing errors
# Method in brief: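 A nanobody's polyreactivity label depends on the gate it was sorted from. Yeast display cells were stained with 10% biotinylated, detergent-solubilized Sf9 membrane reagent for 1 hour at 4 °C, enriched on streptavidin microbeads and sorted by FACS. The low and high (top ~1%) gates were set on anti-HA fluorescence for expression and streptavidin fluorescence for reagent binding.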
row,Sequence,polyreactivity (PSR sort gate)
1,QVQLVESGGGLVQAGGSLRLSFAASGRNFYRYAMGWYRQAPGKERELVAAISRGGRTNYADSVKGRFTISRDNAKNTGYLQMNSLKPEDTAVYYCAVTNFGALYDYWGQGTQVTVSS,high polyreactivity
2,QVQLVESGGGLVQAGGSLRLSFAASGRTFEKYAMGWYRQAPGKERELVAAISGSGGSTFYADSVKGRFTISRDIAKYTVYLQMISLKPEDSAVYYCAADSRSHPGDYWGQGTQVTVSS,low polyreactivity
3,QVQLVESGGGLVQAGGSLRLSFAASGRTFGGYTMGWYRQAPGKERELVAAITWNGGRTYYADSVKGRFTISRDNAKNTVYLQMNILKPEDTAVYFCAVRIRLRRARLSYDYWGQGTQVTVSS,high polyreactivity
4,QVQLVESGGGLVQAGGSLRLSFAASGSIFASNAMGWYRQAPGKERELVAAISKRGGSTYYVDSVKGRFTISRDNAKNTVYFQMNSLKPEDTAVYYCNTYIRQDAPGQYDYWGQGTQVTVSS,high polyreactivity
5,QVQLVESGGGLVQAGGSLRLSFAASGSIFASNTMGWNSPEPGKERELVAAISSNGGSTYYADSVKGRFTISRDNAKNTFYLQMNSLKPEDTGVYYCNAELSTSELGGMYSWGQGTQVTVSS,low polyreactivity
6,QVQLVESGGGLVQAGGSLRLSFAASGSIFVQYAMRWYRPAPGKERELVAAIDFSDTSTYYADSVKGRFTISRDNAKNTVYLHMNSLKPEDTAVYYCAAEEDSPCRSAIAEEEYWGQGTLVTVSS,low polyreactivity
7,QVQLVESGGGLVQAGGSLRLSFAASGSIFYVYAMGWYRQAPGKERELVAAITWSGGSTYYADSVKGRFTLSRDNAKNTVYLQMNSLKPEDTAVYYCAADEGYDYPYYYWGQGTQVTVSS,high polyreactivity
8,QVQLVESGGGLVQAGGSLRLSFAASGSTFSRYAMGWYRQAPGKERELVAAISSGGGTNYADSVKGRFTISRDNAKNTVYLQMNSLKPEDTSVYYRAAVTVDFLKGYGWWFWQISDFWGQVTQVTVSS,low polyreactivity
9,QVQLVESGGGLVQAGGSLRLSFAASGSTFYVYPMGWYRQAPGKERELVAAITDSGGSTYADSVKGRFTISRDNAMNTVYLQFNSLKPEASAVYADSTFYWYYYYWGQGPQVTVSS,low polyreactivity
10,QVQLVESGGGLVQAGGSLRLSFASSGRIFIAYAMGWYRQAPGIERELVAAITSGGGTYYADSVKGRFTISRDNAKNTVYLQMNSLKPVDTAVYYCAAACGRRYPDKFVAITPTYDFWGQGTQVTVSS,low polyreactivity
11,QVQLVESGGGLVQAGGSLRLSFPASGSTYFTYAMGWYRQAPGKERELVAAISWSGGTTYYADSVKGRFTISRDNAKNTVYLQMNSLKPEDTAVYYCASDRAGILKANDYWGKGTQVTVSS,low polyreactivity
12,QVQLVESGGGLVQAGGSLRLSGAASGFIFGYYAMGWYRQAPGKERELVAAITSRGGSTYYADSVKGRFTISRDNAKNTVYLQMNSLKPEDTAVYYCAAGYNGYGLQYYYWGQGTQVTVSS,high polyreactivity
13,QVQLVESGGGLVQAGGSLRLSGAASGRIFYYNTMGWYRQAPGKEWEVVAAISSTAYTTYADSVKGRFTISRDNAKNTVYLQMYSLKPEDTAVYYCAAYRYSRYRQRYNYWGQGTQVTVSS,high polyreactivity
14,QVQLVESGGGLVQAGGSLRLSGAASGRTCGTNAMGWSRQAHGKERELVAAISSSGGSTYYADSVKGRFTISRDNAKNTVYLQMISQKPEDTAVYYCAQGWHRGVGFGYWGQGTQVTVSS,high polyreactivity
15,QVQLVESGGGLVQAGGSLRLSGAASGSTFGWYVMGWYRQAPGKERELVASITGSGGSTYYADSVKGRFTISRDHAKNTVYLQMNSLNPEDTAVYYCAAHTGWYDDWTHDSWGQGTQVTVSS,low polyreactivity
16,QVQLVESGGGLVQAGGSLRLSGAASGSTFTEYAMGWYRQAPGKEREFVAAITESGASTYYADSVKGRFTISRDNAKNTVYLQRNSLKPEDTAVYYCNAGYWRFIDSYDYWGQGTQVTVSS,high polyreactivity

row,Sequence,polyreactivity (PSR sort gate)
1,QVQLVESGGGLVQAGGSLRLSGAAWSIFYLNAMGWYRKAPGKERELVAAISSAGSTYYADSVKGRFTISRDNAKNTVYLQMNSLKPEDTAVYYCAAYWYDSPGVTEIWYDYWGQGTQVTVSS,low polyreactivity
2,QVQLVESGGGLVQAGGSLRLSGDASGRIFRLYAMGWYRQAPGKEREFVAAISRSGGRTYYADSVKGRFTISRDNAKNTVYLQMNSLKPEDTAVYYCAAVYRQCGDYYSRDYYWGQGTQVTVSS,high polyreactivity
3,QVQLVESGGGLVQAGGSLRLSLAASGSIFRAYVMGWYRPAPGKERELVAAITRSGARTYYADSLKGRFTLSRDNAKNTVYLQMNSLKPEDTAVYYCAAETSGSQSKLYYYWGQGTQVTVSS,high polyreactivity
4,QVQLVESGGGLVQAGGSLRLSRAASGSTLSLYAMGWYRQAPGKERELVAAITSSGGTYYADSVKGRFTISRDNAKNTVYLQMNSLKPEDTAVYYCAADPRSYFTSEYWGQGTQVTVSS,high polyreactivity
5,QVQLVESGGGLVQAGGSLRLSSAASGFIFDYSAMGWYRQAPGKERELVAAITRDGGGTYYADSVKGRFTISRDNANNTVYLQMNRLKPEDTAVYYCAARRAVRLYYWGQGTQVTVSA,high polyreactivity
6,QVQLVESGGGLVQAGGSLRLSSAASGFNSSRNAMGWYRQAPGKERELVATISSGGDTYYADSVKGRFTISRDNAKNTVYLQMNSLKPEDTAVYYCATDRAERTGYTRYVKTYNYWGQGTQVTVSS,low polyreactivity
7,QVQLVESGGGLVQAGGSLRLSSAASGFTFDCNTMGWYRQAPGKERELVALISSTGGRTYYADSVQGRFSISRDNAKNTVYLQMNSLKPEDTAGSYCNKRRRNPVGYDYWGLGTQVTVSS,high polyreactivity
8,QVQLVESGGGLVQAGGSLRLSSAASGFTFQGYVMGWYRQAPGKERELVAAISWSGGSTYYADSVKGRFTISRDTAKNTVYLQMNSLKPEDTAVYYCAAVTRFYTKYYWGQGTQVTVSS,high polyreactivity
9,QVQLVESGGGLVQAGGSLRLSSAASGFTFRAYAMGWYRQAPGKERELVAGISTRGGRTYYADSVKGRFTISRDNAKNTVYLQMNSLKPEDTAVYYCNAVDKTGKYDYWGQGPQVTVSS,high polyreactivity
10,QVQLVESGGGLVQAGGSLRLSSAASGFTFRYYAMGWYRQAPGKERELVAAISWSGGRTYYADSVKGRFTISRDNAKYTVYLQMNILKPEDTAVYYCAADGYPYFYGDFDYSGQGTQVTVSS,high polyreactivity
11,QVQLVESGGGLVQAGGSLRLSSAASGFTFSAYAMGWYRQAPGKEREMVATITSGGSTNYADSVKGRFTISRDNAKNTVYLQMNSLIPEDTAVYYCAADVGWLYYYPKYYYWGQGTQVTVSW,low polyreactivity
12,QVQLVESGGGLVQAGGSLRLSSAASGFTLGYNAMGWYRQAPGKERELVAGITWSGGSTSYADSVKGRFTISRDNAKNTVYLQMNSLKPEDTAVYYCAKLRRYSGWLPWPYAYDYWGQGTQVTVSS,high polyreactivity
13,QVQLVESGGGLVQAGGSLRLSSAASGGIFFIYVMGWYRQAPGKERELVAAISWSGGDTYYADSVQGRFTISRDNAKNTVYVQMNSLKPEDTAVYYCAARYYYLGTRYGYWGQGTQVTVSS,low polyreactivity
14,QVQLVESGGGLVQAGGSLRLSSAASGGIFRYYAMGLYRQAPGKERELVAAITSSGTSTYYADSVKGRFTISRDYAKNTVYLQMNSLKPEDTAVYYCARVVRPTDGDYWGLGTQVTVSS,high polyreactivity
15,QVQLVESGGGLVQAGGSLRLSSAASGGILPIYAMGWYRQAPGKERELVATITGSGGGTYADSVKGRFTISRDNAKNTVYLQMNSLKPEDTAVYYCNADLGPVGHIDGYSYYDYDYWGQGTQVTVSS,low polyreactivity
